According to patent US20160074488A1 (UNIVERSITY OF CHICAGO, published 2016):

B1: HK-Q11 β-sheet fibrillizing peptide (nanofibers) (peptide)
peptide: QQKFQFQFHQQ
notes: Synthetic peptide assembled into nanofibers
B2: βTail peptide (peptide)
peptide: MALKVELEKLKSELVVLHSELHKLKSEL
B3: Tryptophan-terminated βTail (peptide)
peptide: WGSGSMALKVELEKLKSELVVLHSELHKLKSEL
notes: Synthetic peptide; also called W-βTail; W-βT
B4: Q11 β-sheet fibrillizing peptide (assembled as Q11 nanofibers, gels or microgels) (peptide)
peptide: QQKFQFQFEQQ
notes: Synthetic peptide; stands in the assays as a supramolecular nanofiber of many copies; also called Q11 gels; Q11 microgels

Experiments:
[1] = target: the molecule itself; assay: TEM and thioflavin T fluorescence
[2] = target: the molecule itself; assay: circular dichroism (FIGS. 1B-C)
[3] = target: B4; assay: circular dichroism
[4] = target: B4; assay: loss of tryptophan fluorescence from the supernatant
[5] = target: T1, βTail-cutinase (fusion of βTail and the fungal enzyme cutinase); assay: loss of protein from the supernatant (µBCA)
T1 construct: also called βT-cut

[6] = target: gold-labeled streptavidin (streptavidin-5 nm gold particles, Invitrogen cat. # A32360) (UniProt P22629 37-163, limits assumed, bound to 5 nm gold particles); assay: gold TEM
Chain of gold-labeled streptavidin (streptavidin-5 nm gold particles, Invitrogen cat. # A32360) (P22629 37-163 limits assumed, one chain of several): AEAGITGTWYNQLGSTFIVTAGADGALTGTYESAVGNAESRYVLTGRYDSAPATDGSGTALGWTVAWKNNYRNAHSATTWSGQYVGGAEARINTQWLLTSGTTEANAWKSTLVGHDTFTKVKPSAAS

**Q.** Does B1 bind [1]?
**A.** binds

**Q.** Does B2 bind [2]?
**A.** binds

**Q.** Does B2 bind [3]?
**A.** binds

**Q.** Does B3 bind [4]?
**A.** binds

**Q.** Does B4 bind [2]?
**A.** binds

**Q.** Does B4 bind [5]?
**A.** binds

**Q.** Does B4 bind [6]?
**A.** no binding
